The target of experiment [1] is T1, human recombinant TLR2 protein (human, UniProt O60603 21-588).
T1 construct: Toll-like receptor 2, human, recombinant protein from R&D systems; also called hTLR2; source: bought: R&D systems
Nature of the experiment: SPR; Biacore T-200; TLR2, TLR4 and integrin αvβ3 immobilised on a CM5 chip by amine coupling; CCN1 as analyte at 25 µl per min, 25 °C, phosphate buffer with 350 mM NaCl, 0.5 mM CaCl2, 0.5 mM MgCl2, 10 µg per ml BSA; global fit to 1:1 Langmuir model, KD = kd/ka. The note with it: both partners purified. On the technique in general: Surface plasmon resonance follows binding to a sensor surface in real time, without labels.

Experiment [2] addresses T2, human recombinant TLR4 protein (without MD2) (human, UniProt O00206 24-631).
T2 construct: also called hTLR4; source: bought: R&D systems
The description is as above. The note with it: both partners purified.

A word on the Kd: it is the free concentration of one partner at which half of the binding sites on the other are occupied at equilibrium, for simple one-to-one binding.

T1 sequence (O60603 21-588): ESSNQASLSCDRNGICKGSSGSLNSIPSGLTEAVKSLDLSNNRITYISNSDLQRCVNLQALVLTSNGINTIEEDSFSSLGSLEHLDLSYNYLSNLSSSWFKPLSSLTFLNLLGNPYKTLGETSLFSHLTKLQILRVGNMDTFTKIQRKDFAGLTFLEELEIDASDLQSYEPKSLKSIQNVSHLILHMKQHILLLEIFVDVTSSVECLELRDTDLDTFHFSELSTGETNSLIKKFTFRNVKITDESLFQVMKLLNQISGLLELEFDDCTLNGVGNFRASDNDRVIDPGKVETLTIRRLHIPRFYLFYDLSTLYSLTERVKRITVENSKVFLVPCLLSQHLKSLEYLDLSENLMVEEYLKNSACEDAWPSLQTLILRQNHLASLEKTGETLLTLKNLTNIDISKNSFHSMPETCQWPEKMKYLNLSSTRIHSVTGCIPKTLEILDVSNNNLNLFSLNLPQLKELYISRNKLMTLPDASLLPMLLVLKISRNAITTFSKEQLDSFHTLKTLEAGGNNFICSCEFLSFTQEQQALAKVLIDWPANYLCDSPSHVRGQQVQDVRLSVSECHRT
T2 sequence (O00206 24-631): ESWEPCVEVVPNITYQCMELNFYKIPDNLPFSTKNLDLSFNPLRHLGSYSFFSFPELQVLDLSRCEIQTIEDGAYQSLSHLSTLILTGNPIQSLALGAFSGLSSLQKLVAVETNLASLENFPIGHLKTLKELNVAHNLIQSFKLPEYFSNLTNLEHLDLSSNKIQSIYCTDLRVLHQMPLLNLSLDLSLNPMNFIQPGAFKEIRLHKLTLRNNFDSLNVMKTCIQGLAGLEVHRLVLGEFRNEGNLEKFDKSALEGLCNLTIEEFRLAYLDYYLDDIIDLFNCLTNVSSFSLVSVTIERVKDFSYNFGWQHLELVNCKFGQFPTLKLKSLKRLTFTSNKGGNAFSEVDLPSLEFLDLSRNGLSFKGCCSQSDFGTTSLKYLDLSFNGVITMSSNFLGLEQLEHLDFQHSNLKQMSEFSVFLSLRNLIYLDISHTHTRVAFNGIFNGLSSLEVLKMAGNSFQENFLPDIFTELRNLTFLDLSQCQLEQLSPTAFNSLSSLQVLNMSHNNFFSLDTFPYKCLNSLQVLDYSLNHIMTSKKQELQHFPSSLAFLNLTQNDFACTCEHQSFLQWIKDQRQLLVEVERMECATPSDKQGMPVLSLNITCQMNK

B1: CCN1-WT (recombinant matricellular protein CCN1) (natural protein, UniProt P18406 25-379, looked up)
chain: TCPAACHCPLEAPKCAPGVGLVRDGCGCCKVCAKQLNEDCSKTQPCDHTKGLECNFGASSTALKGICRAQSEGRPCEYNSRIYQNGESFQPNCKHQCTCIDGAVGCIPLCPQELSLPNLGCPNPRLVKVSGQCCEEWVCDEDSIKDSLDDQDDLLGLDASEVELTRNNELIAIGKGSSLKRLPVFGTEPRVLFNPLHAHGQKCIVQTTSWSQCSKSCGTGISTRVTNDNPECRLVKETRICEVRPCGQPVYSSLKKGKKCSKTKKSPEPVRFTYAGCSSVKKYRPKYCGSCVDGRCCTPLQTRTVKMRFRCEDGEMFSKNVMMIQSCKCNYNCPHPNEASFRLYSLFNDIHKFRD
notes: CCN1 (CYR61), 40 kDa matricellular protein with IGFBP, vWC, TSR and CT domains; also called CYR61; Cyr61
As for B1, the Kd in experiment [1] amounted to 227 nM; in experiment [2], 291 nM.

The values above are taken from PMC7060279, “CCN1 is an opsonin for bacterial clearance and a direct activator of Toll-like receptor signaling” (Nature Communications, 2020).
